From the supplement of paper PMC9112550, “Optimization of the antimicrobial peptide Bac7 by deep mutational scanning” (BMC Biology, 2022)

Tested on: Escherichia coli TOP10
Experiment: shrunken log2 fold change of peptide-encoding DNA abundance (4.5 h post-induction vs induction); higher = less antimicrobial activity (less host growth inhibition)
Conditions: time post-induction: 4.5 h; library: site-saturation at positions 5, 18, 19, 20
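Also: peptides expressed intracellularly from a pBAD plasmid library in pooled LB shake-flask culture, induced with 0.3% L-arabinose, DNA abundance read by NGS, three biological replicates, DESeq2 with apeglm shrinkage.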

| Sequence | shrunken log2 fold change |
| --- | --- |
| RRIRWRPPRLPRPRPRPWRRPRP | 0.117 |
| RRIRWRPPRLPRPRPRPWTDPRP | -0.0932 |
| RRIRWRPPRLPRPRPRPWTSPRP | -0.0584 |
| RRIRWRPPRLPRPRPRPWVCPRP | 0.186 |
| RRIRWRPPRLPRPRPRPWVLPRP | 0.287 |
| RRIRWRPPRLPRPRPRPWWDPRP | 0.0125 |
| RRIRWRPPRLPRPRPRPWWMPRP | 0.388 |
| RRIRWRPPRLPRPRPRPYADPRP | -0.0623 |
| RRIRWRPPRLPRPRPRPYAYPRP | 0.0461 |
| RRIRWRPPRLPRPRPRPYCFPRP | -0.379 |
| RRIRWRPPRLPRPRPRPYCVPRP | -0.521 |
| RRIRWRPPRLPRPRPRPYDVPRP | -0.0559 |
| RRIRWRPPRLPRPRPRPYETPRP | -0.181 |
| RRIRWRPPRLPRPRPRPYGNPRP | -0.338 |
| RRIRWRPPRLPRPRPRPYHFPRP | 0.0137 |
| RRIRWRPPRLPRPRPRPYHPPRP | -1.08 |
| RRIRWRPPRLPRPRPRPYHTPRP | -0.816 |
| RRIRWRPPRLPRPRPRPYHWPRP | -0.236 |
| RRIRWRPPRLPRPRPRPYLKPRP | -0.911 |
| RRIRWRPPRLPRPRPRPYMRPRP | 0.0516 |
| RRIRWRPPRLPRPRPRPYNAPRP | -0.307 |
| RRIRWRPPRLPRPRPRPYNVPRP | -0.758 |
| RRIRWRPPRLPRPRPRPYPIPRP | 0.0625 |
| RRIRWRPPRLPRPRPRPYPSPRP | -0.0856 |
| RRIRWRPPRLPRPRPRPYQKPRP | -0.0398 |

| Sequence | shrunken log2 fold change |
| --- | --- |
| RRIRWRPPRLPRPRPRPYQVPRP | -0.268 |
| RRIRWRPPRLPRPRPRPYRFPRP | -0.0166 |
| RRIRWRPPRLPRPRPRPYRNPRP | -0.552 |
| RRIRWRPPRLPRPRPRPYRWPRP | -0.0731 |
| RRIRWRPPRLPRPRPRPYSKPRP | -0.492 |
| RRIRWRPPRLPRPRPRPYTIPRP | -0.606 |
| RRIRWRPPRLPRPRPRPYVGPRP | -0.157 |
| RRIRWRPPRLPRPRPRPYWKPRP | -0.123 |
| RRIRWRPPRLPRPRPRPYWSPRP | -0.295 |
| RRIRWRPPRLPRPRPRPYYFPRP | -0.692 |
| RRIRYRPPRLPRPRPRPAAMPRP | 1.99 |
| RRIRYRPPRLPRPRPRPAEEPRP | 0.0567 |
| RRIRYRPPRLPRPRPRPAFLPRP | -0.365 |
| RRIRYRPPRLPRPRPRPAGFPRP | -0.0806 |
| RRIRYRPPRLPRPRPRPAIWPRP | 0.0587 |
| RRIRYRPPRLPRPRPRPAKCPRP | -0.153 |
| RRIRYRPPRLPRPRPRPAKRPRP | 0.167 |
| RRIRYRPPRLPRPRPRPALMPRP | -0.226 |
| RRIRYRPPRLPRPRPRPAMFPRP | -0.229 |
| RRIRYRPPRLPRPRPRPANSPRP | -0.11 |
| RRIRYRPPRLPRPRPRPANWPRP | -0.0751 |
| RRIRYRPPRLPRPRPRPAQKPRP | -0.0925 |
| RRIRYRPPRLPRPRPRPASCPRP | -0.235 |
| RRIRYRPPRLPRPRPRPATCPRP | 0.0415 |
| RRIRYRPPRLPRPRPRPATQPRP | -0.163 |

| Sequence | shrunken log2 fold change |
| --- | --- |
| RRIRYRPPRLPRPRPRPAWDPRP | -0.092 |
| RRIRYRPPRLPRPRPRPAWKPRP | 0.0184 |
| RRIRYRPPRLPRPRPRPAWTPRP | -0.156 |
| RRIRYRPPRLPRPRPRPAYPPRP | -0.422 |
| RRIRYRPPRLPRPRPRPAYVPRP | -0.296 |
| RRIRYRPPRLPRPRPRPCAMPRP | 0.0865 |
| RRIRYRPPRLPRPRPRPCFFPRP | -0.619 |
| RRIRYRPPRLPRPRPRPCFMPRP | -0.675 |
| RRIRYRPPRLPRPRPRPCFPPRP | -1.06 |
| RRIRYRPPRLPRPRPRPCFYPRP | -0.909 |
| RRIRYRPPRLPRPRPRPCGWPRP | -0.00979 |
| RRIRYRPPRLPRPRPRPCIIPRP | -1.51 |
| RRIRYRPPRLPRPRPRPCLQPRP | -0.00663 |
| RRIRYRPPRLPRPRPRPCPFPRP | -0.0574 |
| RRIRYRPPRLPRPRPRPCQKPRP | -0.0134 |
| RRIRYRPPRLPRPRPRPCRFPRP | -0.241 |
| RRIRYRPPRLPRPRPRPCRMPRP | -0.0503 |
| RRIRYRPPRLPRPRPRPCRRPRP | -0.0474 |
| RRIRYRPPRLPRPRPRPCTSPRP | -0.679 |
| RRIRYRPPRLPRPRPRPCVWPRP | -0.0563 |
| RRIRYRPPRLPRPRPRPCWFPRP | -0.0378 |
| RRIRYRPPRLPRPRPRPCYFPRP | -1.04 |
| RRIRYRPPRLPRPRPRPDARPRP | -0.294 |
| RRIRYRPPRLPRPRPRPDCVPRP | -0.3 |
| RRIRYRPPRLPRPRPRPDDKPRP | -1.56 |

| Sequence | shrunken log2 fold change |
| --- | --- |
| RRIRYRPPRLPRPRPRPDFSPRP | 0.0939 |
| RRIRYRPPRLPRPRPRPDHKPRP | -0.308 |
| RRIRYRPPRLPRPRPRPDKAPRP | 0.0133 |
| RRIRYRPPRLPRPRPRPDKGPRP | -0.0723 |
| RRIRYRPPRLPRPRPRPDLCPRP | 0.0404 |
| RRIRYRPPRLPRPRPRPDLIPRP | -0.302 |
| RRIRYRPPRLPRPRPRPDLWPRP | -0.0329 |
| RRIRYRPPRLPRPRPRPDNDPRP | -0.17 |
| RRIRYRPPRLPRPRPRPDNIPRP | 0.0653 |
| RRIRYRPPRLPRPRPRPDPKPRP | -0.22 |
| RRIRYRPPRLPRPRPRPDPLPRP | -0.0227 |
| RRIRYRPPRLPRPRPRPDQHPRP | -0.13 |
| RRIRYRPPRLPRPRPRPDRFPRP | -0.411 |
| RRIRYRPPRLPRPRPRPDSDPRP | -0.179 |
| RRIRYRPPRLPRPRPRPDSIPRP | -0.0267 |
| RRIRYRPPRLPRPRPRPDSNPRP | -2.93 |
| RRIRYRPPRLPRPRPRPDTMPRP | -0.0156 |
| RRIRYRPPRLPRPRPRPDVTPRP | -0.00733 |
| RRIRYRPPRLPRPRPRPDWDPRP | -0.543 |
| RRIRYRPPRLPRPRPRPDWRPRP | 0.22 |
| RRIRYRPPRLPRPRPRPEAYPRP | -0.185 |
| RRIRYRPPRLPRPRPRPEGSPRP | -0.0779 |
| RRIRYRPPRLPRPRPRPEGYPRP | -0.01 |
| RRIRYRPPRLPRPRPRPEKFPRP | -0.0136 |
| RRIRYRPPRLPRPRPRPELRPRP | 0.363 |

| Sequence | shrunken log2 fold change |
| --- | --- |
| RRIRYRPPRLPRPRPRPEMWPRP | 0.0929 |
| RRIRYRPPRLPRPRPRPEMYPRP | -0.0203 |
| RRIRYRPPRLPRPRPRPENHPRP | -0.552 |
| RRIRYRPPRLPRPRPRPENYPRP | -0.0233 |
| RRIRYRPPRLPRPRPRPERQPRP | -0.01 |
| RRIRYRPPRLPRPRPRPETRPRP | 0.0147 |
| RRIRYRPPRLPRPRPRPEWMPRP | -0.758 |
| RRIRYRPPRLPRPRPRPEWPPRP | -0.0693 |
| RRIRYRPPRLPRPRPRPEYCPRP | -0.414 |
| RRIRYRPPRLPRPRPRPEYFPRP | -0.744 |
| RRIRYRPPRLPRPRPRPFAHPRP | -0.00804 |
| RRIRYRPPRLPRPRPRPFAIPRP | -0.158 |
| RRIRYRPPRLPRPRPRPFANPRP | -0.245 |
| RRIRYRPPRLPRPRPRPFARPRP | -0.084 |
| RRIRYRPPRLPRPRPRPFCAPRP | -0.415 |
| RRIRYRPPRLPRPRPRPFDWPRP | -0.122 |
| RRIRYRPPRLPRPRPRPFFHPRP | -1.2 |
| RRIRYRPPRLPRPRPRPFFMPRP | -0.71 |
| RRIRYRPPRLPRPRPRPFGLPRP | -0.282 |
| RRIRYRPPRLPRPRPRPFHNPRP | -0.451 |
| RRIRYRPPRLPRPRPRPFIIPRP | -1.23 |
| RRIRYRPPRLPRPRPRPFIYPRP | -0.86 |
| RRIRYRPPRLPRPRPRPFKCPRP | -0.135 |
| RRIRYRPPRLPRPRPRPFKYPRP | -0.689 |
| RRIRYRPPRLPRPRPRPFLEPRP | -0.775 |

| Sequence | shrunken log2 fold change |
| --- | --- |
| RRIRYRPPRLPRPRPRPFMGPRP | -0.316 |
| RRIRYRPPRLPRPRPRPFMWPRP | -0.307 |
| RRIRYRPPRLPRPRPRPFNCPRP | -0.362 |
| RRIRYRPPRLPRPRPRPFNIPRP | -0.973 |
| RRIRYRPPRLPRPRPRPFNLPRP | -0.271 |
| RRIRYRPPRLPRPRPRPFQMPRP | -0.143 |
| RRIRYRPPRLPRPRPRPFRGPRP | -0.303 |
| RRIRYRPPRLPRPRPRPFRMPRP | -0.0929 |
| RRIRYRPPRLPRPRPRPFSHPRP | -0.0363 |
| RRIRYRPPRLPRPRPRPFSLPRP | -1.22 |
| RRIRYRPPRLPRPRPRPFSPPRP | -0.319 |
| RRIRYRPPRLPRPRPRPFTFPRP | -1.08 |
| RRIRYRPPRLPRPRPRPFVTPRP | -0.156 |
| RRIRYRPPRLPRPRPRPFWSPRP | -0.363 |
| RRIRYRPPRLPRPRPRPGCEPRP | 0.0164 |
| RRIRYRPPRLPRPRPRPGCGPRP | -0.0402 |
| RRIRYRPPRLPRPRPRPGCHPRP | -0.711 |
| RRIRYRPPRLPRPRPRPGDAPRP | 0.0773 |
| RRIRYRPPRLPRPRPRPGDPPRP | -0.223 |
| RRIRYRPPRLPRPRPRPGEQPRP | 0.0237 |
| RRIRYRPPRLPRPRPRPGEWPRP | 0.0486 |
| RRIRYRPPRLPRPRPRPGFGPRP | -0.0613 |
| RRIRYRPPRLPRPRPRPGFWPRP | 0.689 |
| RRIRYRPPRLPRPRPRPGGKPRP | 0.0336 |
| RRIRYRPPRLPRPRPRPGHDPRP | -0.0736 |
